Tests used:
CH0505_CON D7gp120/293i = test: ELISA
CH505.w30.12D8gp120 = test: ELISA
CH505w020.14D8gp120 = test: ELISA
CH505w030.20D8gp120/293F = test: ELISA
Centromere B [1] = biological target: Centromere B (UniProt P07199); test: AtheNA, Ab 25 ug/ml
Histones [2] = test: AtheNA, Ab 25 ug/ml
Jo-1 [3] = biological target: Jo-1 (UniProt P12081); test: AtheNA, Ab 25 ug/ml
RNP (ribonucleoprotein) [4] = test: AtheNA, Ab 25 ug/ml
SSA [5] = test: AtheNA, Ab 25 ug/ml
SSB [6] = biological target: SSB (UniProt P05455); test: AtheNA, Ab 25 ug/ml
Scl-70 [7] = biological target: Scl-70 (UniProt P11387); test: AtheNA, Ab 25 ug/ml
Sm (Smith antigen) [8] = test: AtheNA, Ab 25 ug/ml
Centromere B [9] = biological target: Centromere B (UniProt P07199); test: AtheNA, Ab 12.5 ug/ml
Histones [10] = test: AtheNA, Ab 12.5 ug/ml
Jo-1 [11] = biological target: Jo-1 (UniProt P12081); test: AtheNA, Ab 12.5 ug/ml
RNP (ribonucleoprotein) [12] = test: AtheNA, Ab 12.5 ug/ml
SSA [13] = test: AtheNA, Ab 12.5 ug/ml
SSB [14] = biological target: SSB (UniProt P05455); test: AtheNA, Ab 12.5 ug/ml
Scl-70 [15] = biological target: Scl-70 (UniProt P11387); test: AtheNA, Ab 12.5 ug/ml
Sm (Smith antigen) [16] = test: AtheNA, Ab 12.5 ug/ml
Centromere B [17] = biological target: Centromere B (UniProt P07199); test: AtheNA, Ab 6.25 ug/ml
Histones [18] = test: AtheNA, Ab 6.25 ug/ml
Jo-1 [19] = biological target: Jo-1 (UniProt P12081); test: AtheNA, Ab 6.25 ug/ml
RNP (ribonucleoprotein) [20] = test: AtheNA, Ab 6.25 ug/ml
SSA [21] = test: AtheNA, Ab 6.25 ug/ml
SSB [22] = biological target: SSB (UniProt P05455); test: AtheNA, Ab 6.25 ug/ml
Scl-70 [23] = biological target: Scl-70 (UniProt P11387); test: AtheNA, Ab 6.25 ug/ml
Sm (Smith antigen) [24] = test: AtheNA, Ab 6.25 ug/ml
CH505.M10D8gp120 = test: direct-binding ELISA
CH505.M19D8gp120 = test: direct-binding ELISA
CH505.M5D8gp120293F = test: direct-binding ELISA
CH505.M9D8gp120/293F = test: direct-binding ELISA
[25] = biological target: CH505.TF mutant gp120 M6 (HIV-1); test: direct-binding ELISA
[26] = biological target: CH505_w137V201B12.D11gp120 (HIV-1); test: direct-binding ELISA
[27] = biological target: CH505w136.B12D8gp120 (HIV-1); test: direct-binding ELISA
[28] = biological target: CH505w136.B18D8gp120 (HIV-1); test: direct-binding ELISA
[29] = biological target: CH505w136.B27D8gp120 (HIV-1); test: direct-binding ELISA
[30] = biological target: CH505w136.B29D8gp120 (HIV-1); test: direct-binding ELISA
[31] = biological target: CH505w136.B2D8gp120/293F (HIV-1); test: direct-binding ELISA
[32] = biological target: CH505w136.B3D8gp120/293F (HIV-1); test: direct-binding ELISA
[33] = biological target: CH505w136.B4D8gp120 (HIV-1); test: direct-binding ELISA
[34] = biological target: CH505w160.A1D8gp120 (HIV-1); test: direct-binding ELISA
[35] = biological target: CH505w160.C4D8gp120 (HIV-1); test: direct-binding ELISA
[36] = biological target: CH505w160.D5D8gp120/293F (HIV-1); test: direct-binding ELISA
[37] = biological target: CH505w160.T2D8gp120 (HIV-1); test: direct-binding ELISA
[38] = biological target: CH505w160.T4D8gp120/293F (HIV-1); test: direct-binding ELISA
[39] = biological target: HIV-1 CH505 transmitted/founder gp120 Env (HIV-1); test: competition ELISA; competitor biotinylated CH240 on CH505 TF gp120
[40] = biological target: HIV-1 CH505 transmitted/founder gp120 Env (HIV-1); test: competition ELISA, blocking of CH235 binding to CH505 TF gp120
[41] = biological target: HIV-1 CH505 transmitted/founder gp120 Env (HIV-1); test: competition ELISA, blocking of CH236 binding to CH505 TF gp120
[42] = biological target: HIV-1 CH505 transmitted/founder gp120 Env (HIV-1); test: competition ELISA, blocking of CH106 binding to CH505 TF gp120 (self)

Scl-70, sequence (P11387 whole entry): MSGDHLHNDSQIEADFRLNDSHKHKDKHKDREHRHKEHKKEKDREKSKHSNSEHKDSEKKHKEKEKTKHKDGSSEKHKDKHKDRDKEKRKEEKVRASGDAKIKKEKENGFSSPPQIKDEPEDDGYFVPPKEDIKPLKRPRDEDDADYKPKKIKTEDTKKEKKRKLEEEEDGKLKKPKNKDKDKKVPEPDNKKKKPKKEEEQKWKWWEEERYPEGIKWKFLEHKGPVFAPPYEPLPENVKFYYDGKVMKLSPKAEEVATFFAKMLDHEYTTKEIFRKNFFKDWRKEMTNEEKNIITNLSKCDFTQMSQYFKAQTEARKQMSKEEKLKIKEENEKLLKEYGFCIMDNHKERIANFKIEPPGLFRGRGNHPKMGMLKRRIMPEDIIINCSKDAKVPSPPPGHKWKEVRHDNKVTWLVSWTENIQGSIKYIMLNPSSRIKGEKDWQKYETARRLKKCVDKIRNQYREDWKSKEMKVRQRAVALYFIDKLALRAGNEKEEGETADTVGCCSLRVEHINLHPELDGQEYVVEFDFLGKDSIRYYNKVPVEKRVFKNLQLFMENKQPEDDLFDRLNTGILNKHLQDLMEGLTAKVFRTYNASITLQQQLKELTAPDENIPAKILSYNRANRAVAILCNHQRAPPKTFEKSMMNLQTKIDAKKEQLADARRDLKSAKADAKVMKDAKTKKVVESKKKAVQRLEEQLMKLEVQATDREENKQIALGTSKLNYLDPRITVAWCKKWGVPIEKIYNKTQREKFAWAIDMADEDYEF
Centromere B, sequence (P07199 whole entry): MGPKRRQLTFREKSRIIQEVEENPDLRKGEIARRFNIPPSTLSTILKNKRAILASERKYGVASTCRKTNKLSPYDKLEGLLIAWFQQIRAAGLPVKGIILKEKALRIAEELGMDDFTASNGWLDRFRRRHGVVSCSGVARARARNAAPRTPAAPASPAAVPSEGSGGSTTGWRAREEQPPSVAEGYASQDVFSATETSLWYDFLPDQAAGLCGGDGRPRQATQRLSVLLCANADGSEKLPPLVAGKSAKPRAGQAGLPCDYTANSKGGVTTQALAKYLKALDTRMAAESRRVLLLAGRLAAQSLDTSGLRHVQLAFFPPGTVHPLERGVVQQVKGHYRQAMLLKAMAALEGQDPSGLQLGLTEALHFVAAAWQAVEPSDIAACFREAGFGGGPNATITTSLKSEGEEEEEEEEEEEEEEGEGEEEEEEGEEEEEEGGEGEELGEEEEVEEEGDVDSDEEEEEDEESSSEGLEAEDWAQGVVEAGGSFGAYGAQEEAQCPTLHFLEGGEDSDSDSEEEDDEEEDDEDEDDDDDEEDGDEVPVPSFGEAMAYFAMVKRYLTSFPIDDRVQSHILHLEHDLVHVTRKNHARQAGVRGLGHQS
SSB, sequence (P05455 whole entry): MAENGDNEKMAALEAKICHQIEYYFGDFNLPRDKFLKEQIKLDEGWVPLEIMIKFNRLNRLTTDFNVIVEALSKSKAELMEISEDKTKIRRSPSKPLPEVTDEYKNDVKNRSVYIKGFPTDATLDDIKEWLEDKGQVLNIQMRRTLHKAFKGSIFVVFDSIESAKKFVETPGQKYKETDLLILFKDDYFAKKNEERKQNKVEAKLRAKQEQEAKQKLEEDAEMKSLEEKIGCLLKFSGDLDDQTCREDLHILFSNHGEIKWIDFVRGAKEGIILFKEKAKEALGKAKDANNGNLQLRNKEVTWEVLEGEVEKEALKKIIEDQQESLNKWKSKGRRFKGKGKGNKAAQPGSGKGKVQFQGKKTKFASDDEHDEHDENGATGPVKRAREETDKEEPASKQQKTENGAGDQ
Jo-1, sequence (P12081 whole entry): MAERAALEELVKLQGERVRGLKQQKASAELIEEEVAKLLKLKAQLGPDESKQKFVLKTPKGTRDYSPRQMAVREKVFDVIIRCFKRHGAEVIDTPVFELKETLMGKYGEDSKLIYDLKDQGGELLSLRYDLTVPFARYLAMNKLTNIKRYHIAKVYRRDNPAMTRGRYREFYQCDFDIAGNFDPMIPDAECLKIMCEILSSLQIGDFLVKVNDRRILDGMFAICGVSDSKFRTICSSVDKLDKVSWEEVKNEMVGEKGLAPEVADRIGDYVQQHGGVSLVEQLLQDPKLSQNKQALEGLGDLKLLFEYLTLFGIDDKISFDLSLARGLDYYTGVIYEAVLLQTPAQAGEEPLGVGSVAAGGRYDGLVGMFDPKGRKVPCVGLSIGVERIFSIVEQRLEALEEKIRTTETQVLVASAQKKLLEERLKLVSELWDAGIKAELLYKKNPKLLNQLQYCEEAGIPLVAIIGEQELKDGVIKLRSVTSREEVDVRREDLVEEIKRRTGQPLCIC

Substance: CH106 (antibody)
- LogAUC (CH0505_CON D7gp120/293i): 11.9
- LogAUC (CH505.w30.12D8gp120): 11.8
- LogAUC (CH505w020.14D8gp120): 11.2
- LogAUC (CH505w030.20D8gp120/293F): 7.25
- AtheNA signal (relative luminescence units) (Centromere B [1]): 2
- AtheNA signal (relative luminescence units) (Histones [2]): 3
- AtheNA signal (relative luminescence units) (Jo-1 [3]): 2
- AtheNA signal (relative luminescence units) (RNP (ribonucleoprotein) [4]): 3
- AtheNA signal (relative luminescence units) (SSA [5]): 8
- AtheNA signal (relative luminescence units) (SSB [6]): 3
- AtheNA signal (relative luminescence units) (Scl-70 [7]): 2
- AtheNA signal (relative luminescence units) (Sm (Smith antigen) [8]): 1
- AtheNA signal (relative luminescence units) (Centromere B [9]): 2
- AtheNA signal (relative luminescence units) (Histones [10]): 2
- AtheNA signal (relative luminescence units) (Jo-1 [11]): 3
- AtheNA signal (relative luminescence units) (RNP (ribonucleoprotein) [12]): 2
- AtheNA signal (relative luminescence units) (SSA [13]): 11
- AtheNA signal (relative luminescence units) (SSB [14]): 5
- AtheNA signal (relative luminescence units) (Scl-70 [15]): 3
- AtheNA signal (relative luminescence units) (Sm (Smith antigen) [16]): 4
- AtheNA signal (relative luminescence units) (Centromere B [17]): 1
- AtheNA signal (relative luminescence units) (Histones [18]): 2
- AtheNA signal (relative luminescence units) (Jo-1 [19]): 4
- AtheNA signal (relative luminescence units) (RNP (ribonucleoprotein) [20]): 1
- AtheNA signal (relative luminescence units) (SSA [21]): 10
- AtheNA signal (relative luminescence units) (SSB [22]): 6
- AtheNA signal (relative luminescence units) (Scl-70 [23]): 2
- AtheNA signal (relative luminescence units) (Sm (Smith antigen) [24]): 5
- LogAUC (CH505.M10D8gp120): 11.8
- LogAUC (CH505.M19D8gp120): 12.2
- LogAUC (CH505.M5D8gp120293F): 8.37
- LogAUC (CH505.M9D8gp120/293F): 11
- LogAUC [25]: 12.6
- LogAUC [26]: 12.5
- LogAUC [27]: 11.9
- LogAUC [28]: 13.3
- LogAUC [29]: 11.2
- LogAUC [30]: 12
- LogAUC [31]: 12.7
- LogAUC [32]: 12.6
- LogAUC [33]: 11.8
- LogAUC [34]: 7.6
- LogAUC [35]: 6.8
- LogAUC [36]: 5.64
- LogAUC [37]: 6.16
- LogAUC [38]: 12.3
- IC50 [39]: 2.3 µg/mL
- IC50 [40]: 4.3 µg/mL
- IC50 [41]: 6.8 µg/mL
- IC50 [42]: 2.5 µg/mL
